Reference: patent US20100260668A1 (published 2010)

B1: DVD043 (bispecific antibody, human IgG1, kappa)
heavy: not shown
light: DIQMTQSPSSLSASVGDRVTITCSASQDISNYLNWYQQKPGKAPKVLIYFTSSLHSGVPSRFSGSGSGTDFTLTISSLQPEDFATYYCQQYSTVPWTFGQGTKVEIKRTVAAPDIQMTQSPSSLSASVGDRVTITCRASQDVSTAVAWYQQKPGKAPKLLIYSASFLYSGVPSRFSGSGSGTDFTLTISSLQPEDFATTYYCQQSYTGTVTFGQGTKVEIKRTVAAPSVFIFPPSDEQLKSGTASVVCLLNNFYPREAKVQWKVDNALQSGNSQESVTEQDSKDSTYSLSSTLTLSKADYEKHKVYACEVTHQGLSSPVTKSFNRGEC
notes: DVD-Ig; N-term; AB014 (VEGF), C-term; AB015 (DLL4); HC linker short, LC linker short; also called DVD043H; DVD043L
B2: DVD476 (bispecific antibody, human IgG1, kappa)
heavy: not shown
light: B1 light
notes: DVD-Ig; N-term; AB014 (VEGF), C-term; AB015 (DLL4); HC linker long, LC linker short; also called DVD476H; DVD476L
B3: DVD494 (bispecific antibody, human IgG1, kappa)
heavy: not shown
light: DIQMTQSPSSLSASVGDRVTITCSASQDISNYLNWYQQKPGKAPKVLIYFTSSLHSGVPSRFSGSGSGTDFTLTISSLQPEDFATYYCQQYSTVPWTFGQGTKVEIKRTVAAPSVFIFPPDIQMTQSSSYLSVSLGGRVTITCKASDHINNWLAWYQQKPGNAPRLLISGATSLETGVPSRFSGSGSGKDYTLSITSLQTEDVATYYCQQYWSIPLTFGAGTKLELKRTVAAPSVFIFPPSDEQLKSGTASVVCLLNNFYPREAKVQWKVDNALQSGNSQESVTEQDSKDSTYSLSSTLTLSKADYEKHKVYACEVTHQGLSSPVTKSFNRGEC
notes: DVD-Ig; N-term; AB014 (VEGF), C-term; AB072 (DLL4); HC linker long, LC linker long; also called DVD494H; DVD494L
B4: DVD518 (bispecific antibody, human IgG1, kappa, lambda)
heavy: not shown
light: DIQMTQSPSSLSASVGDRVTITCSASQDISNYLNWYQQKPGKAPKVLIYFTSSLHSGVPSRFSGSGSGTDFTLTISSLQPEDFATYYCQQYSTVPWTFGQGTKVEIKRTVAAPSVFIFPPQAVVTQESALTTSPGETVTLTCRSSTGAVTTSNYANWVQEKPDHLFTGLIGGTNNRAPGVPARFSGSLIGDKAALTITGAQTEDEAIYFCALWYSNHWVFGGGTKLTVLGQPKAAPSVTLFPPSSEELQANKATLVCLISDFYPGAVTVAWKADSSPVKAGVETTTPSKQSNNKYAASSYLSLTPEQWKSHRSYSCQVTHEGSTVEKTVAPTECS
notes: DVD-Ig; N-term; AB014 (VEGF), C-term; AB073 (DLL4); HC linker long, LC linker long; also called DVD518H; DVD518L
B5: DVD530 (bispecific antibody, human IgG1, kappa, lambda, L234A L235A)
heavy: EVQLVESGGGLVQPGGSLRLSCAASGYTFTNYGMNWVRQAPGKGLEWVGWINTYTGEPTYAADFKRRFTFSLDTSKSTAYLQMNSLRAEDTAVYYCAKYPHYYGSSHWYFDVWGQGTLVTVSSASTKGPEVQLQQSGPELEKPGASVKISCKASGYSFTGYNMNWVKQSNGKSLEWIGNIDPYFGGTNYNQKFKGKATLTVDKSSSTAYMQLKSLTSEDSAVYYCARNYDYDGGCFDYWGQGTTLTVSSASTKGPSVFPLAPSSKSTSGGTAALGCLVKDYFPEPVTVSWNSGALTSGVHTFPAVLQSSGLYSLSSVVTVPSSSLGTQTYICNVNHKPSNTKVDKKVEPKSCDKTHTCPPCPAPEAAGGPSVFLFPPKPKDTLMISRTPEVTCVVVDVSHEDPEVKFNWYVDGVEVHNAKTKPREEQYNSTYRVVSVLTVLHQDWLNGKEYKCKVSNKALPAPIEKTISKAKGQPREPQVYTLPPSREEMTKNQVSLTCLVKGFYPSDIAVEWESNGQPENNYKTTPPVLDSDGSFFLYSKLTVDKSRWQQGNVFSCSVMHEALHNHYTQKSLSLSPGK
light: B4 light
notes: DVD-Ig; N-term; AB014 (VEGF), C-term; AB073 (DLL4); HC linker short, LC linker long; also called DVD530H; DVD530L
B6: DVD470 (bispecific antibody, human IgG1, kappa)
heavy: not shown
light: DIQMTQSPSSLSASVGDRVTITCSASQDISNYLNWYQQKPGKAPKVLIYFTSSLHSGVPSRFSGSGSGTDFTLTISSLQPEDFATYYCQQYSTVPWTFGQGTKVEIKRTVAAPSVFIFPPDIQMTQSPSSLSASVGDRVTITCRASQDVSTAVAWYQQKPGKAPKLLIYSASFLYSGVPSRFSGSGSGTDFTLTISSLQPEDFATTYYCQQSYTGTVTFGQGTKVEIKRTVAAPSVFIFPPSDEQLKSGTASVVCLLNNFYPREAKVQWKVDNALQSGNSQESVTEQDSKDSTYSLSSTLTLSKADYEKHKVYACEVTHQGLSSPVTKSFNRGEC
notes: DVD-Ig; N-term; AB014 (VEGF), C-term; AB015 (DLL4); HC linker long, LC linker long; also called DVD470H; DVD470L
B7: DVD482 (bispecific antibody, human IgG1, kappa)
heavy: not shown
light: B6 light
notes: DVD-Ig; N-term; AB014 (VEGF), C-term; AB015 (DLL4); HC linker short, LC linker long; also called DVD482H; DVD482L
B8: DVD448 (bispecific antibody, human IgG1, kappa)
heavy: not shown
light: DIQMTQSPSSLSASVGDRVTITCSASQDISNYLNWYQQKPGKAPKVLIYFTSSLHSGVPSRFSGSGSGTDFTLTISSLQPEDFATYYCQQYSTVPWTFGQGTKVEIKRTVAAPSVFIFPPDIVMTQSPDSLAVSLGERATISCRASESVDNYGISFMKWFQQKPGQPPKLLIYAASNQGSGVPDRFSGSGSGTDFTLTISSLQAEDVAVYYCQQSKEVPWTFGGGTKVEIKRTVAAPSVFIFPPSDEQLKSGTASVVCLLNNFYPREAKVQWKVDNALQSGNSQESVTEQDSKDSTYSLSSTLTLSKADYEKHKVYACEVTHQGLSSPVTKSFNRGEC
notes: DVD-Ig; N-term; AB014 (VEGF), C-term; AB069 (DLL4); HC linker long, LC linker long; also called DVD448H; DVD448L
B9: DVD460 (bispecific antibody, human IgG1, kappa)
heavy: not shown
light: B8 light
notes: DVD-Ig; N-term; AB014 (VEGF), C-term; AB069 (DLL4); HC linker short, LC linker long; also called DVD460H; DVD460L
B10: DVD488 (bispecific antibody, human IgG1, kappa)
heavy: not shown
light: DIQMTQSPSSLSASVGDRVTITCSASQDISNYLNWYQQKPGKAPKVLIYFTSSLHSGVPSRFSGSGSGTDFTLTISSLQPEDFATYYCQQYSTVPWTFGQGTKVEIKRTVAAPDIQMTQSSSYLSVSLGGRVTITCKASDHINNWLAWYQQKPGNAPRLLISGATSLETGVPSRFSGSGSGKDYTLSITSLQTEDVATYYCQQYWSIPLTFGAGTKLELKRTVAAPSVFIFPPSDEQLKSGTASVVCLLNNFYPREAKVQWKVDNALQSGNSQESVTEQDSKDSTYSLSSTLTLSKADYEKHKVYACEVTHQGLSSPVTKSFNRGEC
notes: DVD-Ig; N-term; AB014 (VEGF), C-term; AB072 (DLL4); HC linker short, LC linker short; also called DVD488H; DBD488L
B11: DVD500 (bispecific antibody, human IgG1, kappa)
heavy: not shown
light: B10 light
notes: DVD-Ig; N-term; AB014 (VEGF), C-term; AB072 (DLL4); HC linker long, LC linker short; also called DVD500H; DVD500L
B12: DVD512 (bispecific antibody, human IgG1, lambda, L234A L235A)
heavy: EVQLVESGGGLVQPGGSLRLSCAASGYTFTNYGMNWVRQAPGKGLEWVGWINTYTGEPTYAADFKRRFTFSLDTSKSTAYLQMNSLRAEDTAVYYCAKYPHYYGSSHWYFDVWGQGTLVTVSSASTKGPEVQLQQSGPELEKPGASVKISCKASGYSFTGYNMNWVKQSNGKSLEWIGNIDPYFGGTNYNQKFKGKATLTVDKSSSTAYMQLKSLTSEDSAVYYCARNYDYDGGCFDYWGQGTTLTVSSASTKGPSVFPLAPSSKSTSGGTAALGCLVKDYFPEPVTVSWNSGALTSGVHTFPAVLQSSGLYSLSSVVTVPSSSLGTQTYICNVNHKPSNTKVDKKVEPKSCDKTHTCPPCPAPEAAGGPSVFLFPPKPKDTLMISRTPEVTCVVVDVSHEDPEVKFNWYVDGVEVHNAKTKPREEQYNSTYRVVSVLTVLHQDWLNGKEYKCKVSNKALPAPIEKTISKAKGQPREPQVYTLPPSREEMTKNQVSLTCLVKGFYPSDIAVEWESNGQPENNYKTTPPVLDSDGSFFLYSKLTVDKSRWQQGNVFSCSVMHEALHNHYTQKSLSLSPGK
light: DIQMTQSPSSLSASVGDRVTITCSASQDISNYLNWYQQKPGKAPKVLIYFTSSLHSGVPSRFSGSGSGTDFTLTISSLQPEDFATYYCQQYSTVPWTFGQGTKVEIKRTVAAPQAVVTQESALTTSPGETVTLTCRSSTGAVTTSNYANWVQEKPDHLFTGLIGGTNNRAPGVPARFSGSLIGDKAALTITGAQTEDEAIYFCALWYSNHWVFGGGTKLTVLGQPKAAPSVTLFPPSSEELQANKATLVCLISDFYPGAVTVAWKADSSPVKAGVETTTPSKQSNNKYAASSYLSLTPEQWKSHRSYSCQVTHEGSTVEKTVAPTECS
notes: DVD-Ig; N-term; AB014 (VEGF), C-term; AB073 (DLL4); HC linker short, LC linker short; also called DVD512H; DVD512L
B13: DVD524 (bispecific antibody, human IgG1, lambda)
heavy: not shown
light: B12 light
notes: DVD-Ig; N-term; AB014 (VEGF), C-term; AB073 (DLL4); HC linker long, LC linker short; also called DVD524H; DVD524L
B14: DVD442 (bispecific antibody, human IgG1, kappa)
heavy: not shown
light: DIQMTQSPSSLSASVGDRVTITCSASQDISNYLNWYQQKPGKAPKVLIYFTSSLHSGVPSRFSGSGSGTDFTLTISSLQPEDFATYYCQQYSTVPWTFGQGTKVEIKRTVAAPDIVMTQSPDSLAVSLGERATISCRASESVDNYGISFMKWFQQKPGQPPKLLIYAASNQGSGVPDRFSGSGSGTDFTLTISSLQAEDVAVYYCQQSKEVPWTFGGGTKVEIKRTVAAPSVFIFPPSDEQLKSGTASVVCLLNNFYPREAKVQWKVDNALQSGNSQESVTEQDSKDSTYSLSSTLTLSKADYEKHKVYACEVTHQGLSSPVTKSFNRGEC
notes: DVD-Ig; N-term; AB014 (VEGF), C-term; AB069 (DLL4); HC linker short, LC linker short; also called DVD442H; DVD442L
B15: DVD454 (bispecific antibody, human IgG1, kappa)
heavy: not shown
light: B14 light
notes: DVD-Ig; N-term; AB014 (VEGF), C-term; AB069 (DLL4); HC linker long, LC linker short; also called DVD454H; DVD454L

Target: T1, VEGF (UniProt P15692-4 27-191)
T1 construct: Bought reagent; also called vascular endothelial growth factor
Experiment: BIACORE SPR

T1 sequence (P15692 other isoform, or with tags, fused parts or gaps limits assumed): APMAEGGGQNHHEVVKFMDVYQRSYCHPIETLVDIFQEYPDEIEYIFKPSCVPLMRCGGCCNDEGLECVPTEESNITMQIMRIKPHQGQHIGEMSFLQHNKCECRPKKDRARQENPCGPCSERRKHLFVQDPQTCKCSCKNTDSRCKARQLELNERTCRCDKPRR

Kd [nM]	koff [s⁻¹]	kon [M⁻¹ s⁻¹]	Binder
0.0746	0.000125	1.68e+06	B1
0.0281	4.74e-05	1.69e+06	B2
0.566	0.0176	3.11e+07	B3
0.434	0.125	2.88e+08	B4
0.136	0.000171	1.26e+06	B5
0.201	0.00024	1.2e+06	B6
0.2	0.000138	687000	B7
0.271	0.000136	504000	B8
0.174	0.000228	1.32e+06	B9
0.536	0.000374	699000	B10
0.504	0.000248	492000	B11
0.153	0.000143	939000	B12
0.113	0.000188	1.67e+06	B13
0.088	0.00017	1.93e+06	B14
0.079	0.000126	1.59e+06	B15
